Measured values as given in PMC3351189 (Nucleic Acids Research, 2012).

B1: MLL3 Win motif peptide (MLL3Win), C4708S substituted (peptide)
peptide: GSARAEPKMSA
B2: MLL4 Win motif peptide (MLL4Win) (peptide)
peptide: GAARAEVYLRK
B3: SET1A Win motif peptide (SET1AWin) (peptide)
peptide: GSARSEGYYPI
B4: MLL2 Win motif peptide (MLL2Win) (peptide)
peptide: GCARSEPKILT
B5: MLL1 Win motif peptide (MLL1Win) (peptide)
peptide: GSARAEVHLRK
B6: SET1B Win motif peptide (SET1BWin) (peptide)
peptide: GCARSEGFYTI

Biological target: WD-repeat protein-5 (WDR5), S22-334 (UniProt P61964 22-334)
Experiment: ITC

Binder | Kd [nM]
B1 | 2030
B2 | 30
B3 | 260
B4 | 160
B5 | 1130
B6 | 100
